Experiment [1] deals with 441-residue human 2N4R tau (human, UniProt P10636-8 1-441). As to the kind of experiment: NMR titration.
The target in a further experiment is T1, FKBP51 (UniProt Q13451 1-457).
T1 sequence: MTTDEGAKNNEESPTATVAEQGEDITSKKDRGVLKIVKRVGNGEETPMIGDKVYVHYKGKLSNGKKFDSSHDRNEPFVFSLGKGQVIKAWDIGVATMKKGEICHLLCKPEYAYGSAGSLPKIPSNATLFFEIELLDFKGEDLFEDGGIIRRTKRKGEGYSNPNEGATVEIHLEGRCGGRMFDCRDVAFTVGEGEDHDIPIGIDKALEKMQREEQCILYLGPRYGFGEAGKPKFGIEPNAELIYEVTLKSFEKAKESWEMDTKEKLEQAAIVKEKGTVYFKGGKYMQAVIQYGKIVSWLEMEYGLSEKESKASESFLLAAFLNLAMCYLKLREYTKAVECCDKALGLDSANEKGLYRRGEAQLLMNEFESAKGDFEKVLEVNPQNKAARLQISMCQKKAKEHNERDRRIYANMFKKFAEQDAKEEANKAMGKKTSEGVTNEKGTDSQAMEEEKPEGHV
Description: NMR titration.

B1: p23 (human, wild type) (natural protein)
chain: MQPASAKWYDRRDYVFIEFCVEDSKDVNVNFEKSKLTFSCLGGSDNFKHLNEIDLFHCIDPNDSKHKRTDRSILCCLRKGESGQSWPRLTKERAKLNWLSVDFNNWKDWEDDSDEDMSNFDRFSEMMNNMGGDEDVDLPEVDGADDDSQDSDDEKMPDLE
For the molecule B1, in experiment [1], the binding result was “binds”.

B2: truncated p23 (1-119) (domain or fragment)
chain: MQPASAKWYDRRDYVFIEFCVEDSKDVNVNFEKSKLTFSCLGGSDNFKHLNEIDLFHCIDPNDSKHKRTDRSILCCLRKGESGQSWPRLTKERAKLNWLSVDFNNWKDWEDDSDEDMSN
For B2, the binding result with FKBP51 was “binds”.
